Where two headings read alike, the source gives them in different places.
Key:
human BMP7 = target: T1, human BMP7 (human, UniProt P18075 293-431); assay: table caption: MSD-SET; Example 6 describes Biacore SPR for BMP2, BMP7, BMP10
T1 construct: Bought recombinant protein; also called huBMP7; rhBMP7 (R&D Cat#354-BP-010)
T1 sequence (looked up): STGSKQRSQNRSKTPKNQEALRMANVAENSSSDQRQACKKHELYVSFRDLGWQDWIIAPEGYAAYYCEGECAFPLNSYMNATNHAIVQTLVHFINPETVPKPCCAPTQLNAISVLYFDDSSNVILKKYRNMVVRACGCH

human BMP2 = target: T2, human BMP2 (human, UniProt P12643 283-396); assay: as above
T2 construct: Bought recombinant protein; also called huBMP2; rhBMP2 (R&D Cat#355-BM-010)
T2 sequence (P12643 283-396 limits assumed): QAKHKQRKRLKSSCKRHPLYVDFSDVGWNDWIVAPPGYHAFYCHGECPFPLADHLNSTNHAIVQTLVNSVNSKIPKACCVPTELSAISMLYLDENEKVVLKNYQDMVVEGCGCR

[1] = target: T3, human BMP9 (BMP9/Growth Differentiation Factor 2 [Homo sapiens], NP_057288) (human, UniProt Q9UK05 320-429, limits assumed); assay: cell-based or functional assay
T3 sequence: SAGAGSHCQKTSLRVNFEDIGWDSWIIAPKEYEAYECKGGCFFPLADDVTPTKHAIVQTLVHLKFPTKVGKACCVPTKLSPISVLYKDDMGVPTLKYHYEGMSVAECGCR

[2] = target: T4, human BMP10 (Bone Morphogenetic Protein 10 Preproprotein [Homo sapiens], NP_055297) (human, UniProt O95393 317-424); assay: Table 5 (caption: MSD-SET; Example 6 describes Biacore SPR on immobilised rhBMP10, Fab 31.25-1000 nM)
T4 construct: Bought recombinant protein; also called huBMP10; rhBMP10 (R&D Cat#2926-BP-025)
T4 sequence: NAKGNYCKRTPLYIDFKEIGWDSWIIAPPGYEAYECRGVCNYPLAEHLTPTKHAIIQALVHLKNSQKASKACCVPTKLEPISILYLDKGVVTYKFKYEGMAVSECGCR

[3] = target: T3, human BMP9 (BMP9/Growth Differentiation …); assay: blocking ELISA; competitor Type II BMP receptor (ActRIIB, BMPRII)
Method: (§1) Blocking ELISA was used to identify positive clones that can inhibit the interactions between BMP9 and its receptors. Four different recombinant BMP9 receptors can be used: human Alk1-Fc (R&D system, 370-AL-100); human BMPRII-Fc (R&D system, 811-BR-100); human ActRIIA-Fc (R&D system, 340-R2-100); human ActRIIB-Fc (R&D system).
(§2) The blocking activity of antibody sample to specific ligand/receptor combination was measured by ELISA. In brief, 50 ul of receptor at a concentration of 1 ug/ml in coating buffer (PBS) was added into 96 well ELISA plates at 4° C. overnight, followed by washing with PBST one time. ELISA plates were blocked with 200 ul blocking buffer (PBST containing 1% BSA) in each well and then incubated at room temperature (RT) for 1 hour, followed by washing with PBST for 3 times. Diluted antibody sample was mixed with biotinylated human BMP9 (bio-hBMP9 of 1 ug/ml) and incubated at RT for 45 minutes. The mixture of antibody and bio-hBMP9 was added to the plates of 50 ul/well and then incubated at RT for 30 minutes, followed by washing with PBST for 3 times. 50 ul Poly-HRP Streptavidin (Thermofisher, 21140) was added to each well of the plates and incubated at RT for 30 minutes, followed by washing with PBST for 5 times. Finally, 50 ul of TMB reagent (Invitrogen 002023) and 50 ul of 1N HCl (Invitrogen SS01100) were added to each well to stop the reaction. Absorbance of each well was read at 450 nm to get readout OD₄₅₀.

rat BMP9 = target: T5, rat BMP9 (rat, UniProt M0RB87 320-430, The mature growth factor is a disulfide-linked homodimer. One copy of the polypeptide is given.); assay: MSD-SET solution equilibrium titration
T5 construct: also called rat BMP9 (R&D Systems 5566-BP); rat BMP9 condition medium
T5 sequence: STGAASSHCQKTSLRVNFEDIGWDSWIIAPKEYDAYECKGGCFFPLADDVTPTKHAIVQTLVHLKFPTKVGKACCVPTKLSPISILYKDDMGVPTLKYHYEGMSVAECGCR
Method: (§3) The amount of free Fab binding sites was determined by transferring the mixtures on antigen-coated plates and a brief incubation. The free Fab was consequently bound to the plate and detected with a detection antibody after a washing step for removing Fab-antigen complexes. The resulting signal was plotted versus the antigen concentration; and the KD was accurately determined by non-linear curve fitting.
(§4) A 22 serial 2ⁿ dilution of the antigens (human BMP9 (GD-43-KS00); cyno BMP9, rat BMP9 (R&D Systems 5566-BP) or mouse BMP9 (iPROT101715)) was prepared in incubation buffer (PBS (Teknova Cat#P0195) containing 0.5% BSA (Sigma Cat#A7906-500G) and 0.02% Tween-20 (VWR Cat#437082Q)). A constant concentration of the Fab was added. A volume of 60 ul of each antigen:Fab mix was distributed in duplicates to a 384-well polypropylene microtiter plate (PP MTP, Greiner Cat#781280). Incubation buffer served as negative control and a sample containing no antigen served as positive control (Bₘₐₓ). The plate was sealed and incubated overnight (O/N) at room temperature (RT).
(§5) A 384-well standard MSD array plate (Meso Scale Discovery Cat#L21XA) was coated with 30 ul/well human BMP9 diluted in PBS as capture agent and incubated O/N at 4° C. After washing for 3 times with 70 ul/well washing buffer (TBS (Teknova Cat#T1680) with 0.05% Tween-20), the plate was blocked with 50 ul/well blocking buffer (PBS with 5% BSA) for 1 hour at RT. After washing, a volume of 30 ul/well of the antigen:Fab mix was transferred from the PP MTP to the coated MSD plate and incubated for 20 min at RT. After an additional wash step, 30 ul of detection antibody (Goat anti-human Fab specific (Jackson Immuno Research Cat#109-005-097) conjugated with MSD SULFO-TAG NHS Ester (Meso Scale Discovery Cat#R91AN-1)) diluted 1:1000 in incubation buffer was added to each well and incubated for 30 min at RT. The MSD plate was washed and 35 ul/well of read buffer (MSD Read Buffer T 4×, Meso Scale Discovery Cat#R92TC-1) was added and then incubated for 5 min at RT. ECL signals were measured with the MSD SECTOR Imager 6000. The data was evaluated with XLfit (IDBS) software following a 1:1 fit model for Fab (according to Piehler et al., 1997).

[4] = target: T3, human BMP9 (BMP9/Growth Differentiation …); assay: MSD-SET solution equilibrium titration
Method: as §3, §4, §5

mouse BMP9 = target: T6, mouse BMP9 (mouse, UniProt Q9WV56 319-428, limits assumed); assay: MSD-SET solution equilibrium titration
T6 construct: also called murine BMP9; mouse BMP9 (iPROT101715)
T6 sequence (looked up): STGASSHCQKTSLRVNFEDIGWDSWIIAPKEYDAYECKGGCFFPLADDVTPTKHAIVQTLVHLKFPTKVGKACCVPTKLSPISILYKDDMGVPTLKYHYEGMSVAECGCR
Method: as §3, §4, §5

cyno BMP9 = target: T7, cyno BMP9 (cyno, UniProt G7PEU8 320-429); assay: MSD-SET solution equilibrium titration
T7 sequence: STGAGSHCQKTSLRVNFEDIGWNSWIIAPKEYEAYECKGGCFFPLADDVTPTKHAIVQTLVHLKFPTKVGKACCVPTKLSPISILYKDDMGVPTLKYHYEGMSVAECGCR
Method: as §3, §4, §5

[5] = target: T4, human BMP10 (Bone Morphogenetic Protein …); assay: Table 7 (caption: MSD-SET; Example 6 describes Biacore SPR on immobilised rhBMP10, Fab 31.25-1000 nM)
[6] = target: T3, human BMP9 (BMP9/Growth Differentiation …); assay: cell-based or functional assay; remark: listed apart in the source
[7] = target: T3, human BMP9 (BMP9/Growth Differentiation …); assay: blocking ELISA; competitor Type I BMP receptor (AlkI)
Method: as §1, §2

B1: Antibody BMP9-5: AM1900 (antibody, human IgG1, kappa, V domains shown)
VH: QVQLVQSGAEVKKPGASVKVSCKASGYTFTRYWMHWVRQAPGQGLEWMGEINPSQGGTNYNEKFKSRVTMTVDKSISTAYMELSRLRSDDTAVYYCAIGANYGGLVYWGQGTLVTVSS
VL: EIVLTQSPATLSLSPGERATLSCRASESLDNYGISFMNWFQQKPGQAPRFLIYAASNQGSGIPARFSGSGSGTDFTLTISSLQPEDTAVYFCQQSKEVPRTFGGGTKVEIKR
Kd (human BMP7): 108 nM
Kd (human BMP2): 999 nM
RGA IC50 [pM] (HEK293T BRE-Luc reporter gene assay) [1]: 100 pM
binding result [2]: no binding
IC50 [3]: ≤ 1 nM
Kd (rat BMP9): 0.046 nM
Kd [4]: 0.054 nM

B2: Antibody BMP9-7: MOR023787 (antibody, human IgG1, lambda, V domains shown)
VH: QVQLVESGGGLVKPGGSLRLSCAASGFTFSSAWMSWVRQAPGKGLEWVGHIKSKTYGGTIDYAAPVKGRFTISRDDSKNTLYLQMNSLKTEDTAVYYCARVGGYYGYGYAFAYWGQGTLVTVSS
VL: SYELTQPLSVSVALGQTARITCSGDNIGDKYVSWYQQKPGQAPVLVIYDDNKRPSGIPERFSGSNSGNTATLTISRAQAGDEADYYCSSTASKSFNVFGGGTKLTVLG
notes: Fully human, phage display
Kd (mouse BMP9): 0.74 nM
Kd [4]: 0.2 nM
Kd (cyno BMP9): 0.35 nM
binding result [5]: no binding
RGA IC50 [pM] (HEK293T BRE-Luc reporter gene assay) [6]: 118 pM
IC50 [7]: ≤ 1 nM

B3: Antibody BMP9-2: MOR022962 (antibody, human IgG1, kappa, V domains shown)
VH: QVQLLESGGGLVQPGGSLRLSCAASGFTFSSYAMSWVRQAPGKGLEWVSITLGTGHTHYADSVKGRFTISRDNSKNTLYLQMNSLRAEDTAVYYCARGSYIIWSALDYWGQGTLVTVSS
VL: DIQMTQSPSSLSASVGDRVTITCRASQDIRSYLNWYQQKPGKAPKLLIYDASNLQSGVPSRFSGSGSGTDFTLTISSLQPEDFATYYCQQSDTSPLTFGQGTKVEIKR
Kd (mouse BMP9): 0.005 nM
Kd (rat BMP9): 0.006 nM
Kd [4]: 0.012 nM
Kd (cyno BMP9): 0.018 nM
binding result [5]: no binding
RGA IC50 [pM] (HEK293T BRE-Luc reporter gene assay) [6]: 138 pM
IC50 [7]: ≤ 1 nM

B4: Antibody BMP9-8: MOR023793 (antibody, human IgG1, kappa, V domains shown)
VH: QVQLVQSGAEVKKPGASVKVSCKASGYTFTSYYMNWVRQAPGQGLEWMGWINPVQGNTNYAQKFQGRVTMTRDTSISTAYMELSRLRSEDTAVYYCARNYFDVWGQGTLVTVSS
VL: DIQMTQSPSSLSASVGDRVTITCRASQTISNFLAWYQQKPGKAPKLLIYAASNLQSGVPSRFSGSGSGTDFTLTISSLQPEDFAVYYCQQLYAESITFGQGTKVEIKR
notes: Fully human, phage display
IC50 [3]: ≤ 1 nM
Kd (mouse BMP9): 0.44 nM
Kd [4]: 0.12 nM
Kd (cyno BMP9): 0.24 nM
binding result [5]: no binding
RGA IC50 [pM] (HEK293T BRE-Luc reporter gene assay) [6]: 113 pM

B5: Antibody BMP9-3: MOR023795 (antibody, human IgG1, lambda, V domains shown)
VH: EVQLVQSGAEVKKPGESLKISCKGSGYSFTTYWIGWVRQMPGKGLEWMGIIYPEGSYTTYSPSFQGQVTISADKSISTAYLQWSSLKASDTAMYYCARGKRVDASSFDYWGQGTLVTVSS
VL: QSVLTQPPSVSGAPGQRVTISCSGSSSNIGDNYVSWYQQLPGTAPKLLIYRNNKRPSGVPDRFSGSKSGTSASLAITGLQAEDEADYYCSSTDKEHLVFGGGTKLTVLG
notes: Fully human, phage display
IC50 [3]: ≤ 1 nM
Kd (mouse BMP9): 0.059 nM
Kd (rat BMP9): 0.069 nM
Kd [4]: 0.288 nM
Kd (cyno BMP9): 0.262 nM
binding result [5]: no binding
RGA IC50 [pM] (HEK293T BRE-Luc reporter gene assay) [6]: 167 pM

B6: Antibody BMP9-9: MOR023796 (antibody, human IgG1, lambda, V domains shown)
VH: QVQLVQSGAEVKKPGSSVKVSCKASGGTFSDYAIHWVRQAPGQGLEWMGGIIPFFGTAYYAQKFQGRVTITADESTSTAYMELSSLRSEDTAVYYCARRIVSDSVAVQYRHAFDPWGQGTLVTVSS
VL: QSVLTQPPSVSGAPGQRVTISCSGSSSNIGSNYVYWYQQLPGTAPKLLIYGNNNRPSGVPDRFSGSKSGTSASLAITGLQAEDEADYYCNAWDTKAYVWVFGGGTKLTVLG
notes: Fully human, phage display
IC50 [3]: ≤ 1 nM
Kd (mouse BMP9): 0.42 nM
Kd [4]: 0.44 nM
Kd (cyno BMP9): 0.13 nM
binding result [5]: no binding
RGA IC50 [pM] (HEK293T BRE-Luc reporter gene assay) [6]: 130 pM
